Assay results taken from patent US20190241648A1 (STATEN BIOTECHNOLOGY B V, published 2019).
Ends that are not written are not given here.

How the values were obtained:
Experiment in all cases: cyclic peptide substitution array
ApoC3 peptide P69D = target: T1, ApoC3 peptide P69D (human, not fully specified; cyclic (thioether))
T1 peptide: DKFSEFWDLDDEV
Method in brief: (§1)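 Peptide microarrays incubated with antibody samples, then stained with goat anti-human IgG (Fc) DyLight680 and anti-HA DyLight800 control antibodies, scanned at intensity 7/7 (red/green). Secondary-only pre-stain checked background binding; framing HA peptides served as quality control; substitution effects read as changes in spot intensity.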

ApoC3 peptide V71D = target: T2, ApoC3 peptide V71D (human, thioether (positions not given here); also: cyclic (thioether), ring places not given here)
T2 peptide: DKFSEFWDLDPED
Method in brief: as §1

ApoC3 peptide W65E = target: T3, ApoC3 peptide W65E (human, not fully specified; cyclic (thioether))
T3 peptide: DKFSEFEDLDPEV
Method in brief: as §1

ApoC3 peptide P69E = target: T4, ApoC3 peptide P69E (human, not fully specified; cyclic (thioether))
T4 peptide: DKFSEFWDLDEEV
Method in brief: as §1

ApoC3 peptide S62F = target: T5, ApoC3 peptide S62F (human, not fully specified; cyclic (thioether))
T5 peptide: DKFFEFWDLDPEV
Method in brief: as §1

ApoC3 peptide D59G = target: T6, ApoC3 peptide D59G (human, thioether (positions not given here); not fully specified (C-terminus, bridges))
T6 peptide: GKFSEFWDLDPEV
Method in brief: as §1

ApoC3 peptide L67H = target: T7, ApoC3 peptide L67H (human, thioether (positions not given here); not fully specified (bridges); also: thioether between a C-terminal Cys side chain and a modified N-terminus, the Cys is not in the chain)
T7 peptide: DKFSEFWDHDPEV
Method in brief: as §1

ApoC3 peptide P69H = target: T8, ApoC3 peptide P69H (human, not fully specified; cyclic (thioether))
T8 peptide: DKFSEFWDLDHEV
Method in brief: as §1

ApoC3 peptide V71H = target: T9, ApoC3 peptide V71H (human, thioether (positions not given here); also: cyclic (thioether), ring places not given here)
T9 peptide: DKFSEFWDLDPEH
Method in brief: as §1

ApoC3 peptide K60I = target: T10, ApoC3 peptide K60I (human, cyclic (thioether))
T10 peptide: DIFSEFWDLDPEV
Method in brief: as §1

ApoC3 peptide D68I = target: T11, ApoC3 peptide D68I (human, cyclic (thioether))
T11 peptide: DKFSEFWDLIPEV
Method in brief: as §1

ApoC3 peptide W65K = target: T12, ApoC3 peptide W65K (human, cyclic (thioether))
T12 peptide: DKFSEFKDLDPEV
Method in brief: as §1

ApoC3 peptide D59L = target: T13, ApoC3 peptide D59L (human, thioether (positions not given here); not fully specified (C-terminus, bridges))
T13 peptide: LKFSEFWDLDPEV
Method in brief: as §1

ApoC3 peptide W65L = target: T14, ApoC3 peptide W65L (human, cyclic (thioether))
T14 peptide: DKFSEFLDLDPEV
Method in brief: as §1

ApoC3 peptide W65M = target: T15, ApoC3 peptide W65M (human, cyclic (thioether))
T15 peptide: DKFSEFMDLDPEV
Method in brief: as §1

ApoC3 peptide P69M = target: T16, ApoC3 peptide P69M (human, not fully specified; cyclic (thioether))
T16 peptide: DKFSEFWDLDMEV
Method in brief: as §1

ApoC3 peptide E63N = target: T17, ApoC3 peptide E63N (human, cyclic (thioether))
T17 peptide: DKFSNFWDLDPEV
Method in brief: as §1

ApoC3 peptide D66N = target: T18, ApoC3 peptide D66N (human, not fully specified; cyclic (thioether))
T18 peptide: DKFSEFWNLDPEV
Method in brief: as §1

ApoC3 peptide D59P = target: T19, ApoC3 peptide D59P (human, thioether (positions not given here); not fully specified (C-terminus, bridges); also: cyclised via thioether between a C-terminal Cys and a modified N-terminus, the Cys and the N-terminal …)
T19 peptide: PKFSEFWDLDPEV
Method in brief: as §1

ApoC3 peptide D66Q = target: T20, ApoC3 peptide D66Q (human, not fully specified; cyclic (thioether))
T20 peptide: DKFSEFWQLDPEV
Method in brief: as §1

ApoC3 peptide E63R = target: T21, ApoC3 peptide E63R (human, cyclic (thioether))
T21 peptide: DKFSRFWDLDPEV
Method in brief: as §1

ApoC3 peptide W65R = target: T22, ApoC3 peptide W65R (human, cyclic (thioether))
T22 peptide: DKFSEFRDLDPEV
Method in brief: as §1

ApoC3 peptide D68R = target: T23, ApoC3 peptide D68R (human, cyclic (thioether))
T23 peptide: DKFSEFWDLRPEV
Method in brief: as §1

ApoC3 peptide F61S = target: T24, ApoC3 peptide F61S (human, cyclic (thioether))
T24 peptide: DKSSEFWDLDPEV
Method in brief: as §1

ApoC3 peptide K60T = target: T25, ApoC3 peptide K60T (human, cyclic (thioether))
T25 peptide: DTFSEFWDLDPEV
Method in brief: as §1

ApoC3 peptide E63T = target: T26, ApoC3 peptide E63T (human, cyclic (thioether))
T26 peptide: DKFSTFWDLDPEV
Method in brief: as §1

ApoC3 peptide F61V = target: T27, ApoC3 peptide F61V (human, cyclic (thioether))
T27 peptide: DKVSEFWDLDPEV
Method in brief: as §1

ApoC3 peptide V71W = target: T28, ApoC3 peptide V71W (human, not fully specified; cyclic (thioether))
T28 peptide: DKFSEFWDLDPEW
Method in brief: as §1

ApoC3 peptide S62Y = target: T29, ApoC3 peptide S62Y (human, thioether (positions not given here); also: cyclic (thioether), ring places not given here)
T29 peptide: DKFYEFWDLDPEV
Method in brief: as §1

ApoC3 peptide E63Y = target: T30, ApoC3 peptide E63Y (human, cyclic (thioether))
T30 peptide: DKFSYFWDLDPEV
Method in brief: as §1

ApoC3 peptide D59A = target: T31, ApoC3 peptide D59A (human, thioether (positions not given here); not fully specified (C-terminus, bridges))
T31 peptide: AKFSEFWDLDPEV
Method in brief: as §1

ApoC3 peptide E70A = target: T32, ApoC3 peptide E70A (human, cyclic (thioether))
T32 peptide: DKFSEFWDLDPAV
Method in brief: as §1

% of binding to wild-type peptide (ApoC3 peptide P69D): 21.6%
% of binding to wild-type peptide (ApoC3 peptide V71D): 111%
% of binding to wild-type peptide (ApoC3 peptide W65E): 0%
% of binding to wild-type peptide (ApoC3 peptide P69E): 43%
% of binding to wild-type peptide (ApoC3 peptide S62F): 1.25%
% of binding to wild-type peptide (ApoC3 peptide D59G): 60.3%
% of binding to wild-type peptide (ApoC3 peptide L67H): 3.58%
% of binding to wild-type peptide (ApoC3 peptide P69H): 10.7%
% of binding to wild-type peptide (ApoC3 peptide V71H): 72.8%
% of binding to wild-type peptide (ApoC3 peptide K60I): 106%
% of binding to wild-type peptide (ApoC3 peptide D68I): 0%
% of binding to wild-type peptide (ApoC3 peptide W65K): 0%
% of binding to wild-type peptide (ApoC3 peptide D59L): 33.6%
% of binding to wild-type peptide (ApoC3 peptide W65L): 0%
% of binding to wild-type peptide (ApoC3 peptide W65M): 0%
% of binding to wild-type peptide (ApoC3 peptide P69M): 29.3%
% of binding to wild-type peptide (ApoC3 peptide E63N): 31.3%
% of binding to wild-type peptide (ApoC3 peptide D66N): 0%
% of binding to wild-type peptide (ApoC3 peptide D59P): 69.3%
% of binding to wild-type peptide (ApoC3 peptide D66Q): 0%
% of binding to wild-type peptide (ApoC3 peptide E63R): 2.19%
% of binding to wild-type peptide (ApoC3 peptide W65R): 0.02%
% of binding to wild-type peptide (ApoC3 peptide D68R): 0%
% of binding to wild-type peptide (ApoC3 peptide F61S): 22.6%
% of binding to wild-type peptide (ApoC3 peptide K60T): 177%
% of binding to wild-type peptide (ApoC3 peptide E63T): 0%
% of binding to wild-type peptide (ApoC3 peptide F61V): 20.2%
% of binding to wild-type peptide (ApoC3 peptide V71W): 68.7%
% of binding to wild-type peptide (ApoC3 peptide S62Y): 0%
% of binding to wild-type peptide (ApoC3 peptide E63Y): 90.9%
% of binding to wild-type peptide (ApoC3 peptide D59A): 44.4%
% of binding to wild-type peptide (ApoC3 peptide E70A): 50%
B1: Llama antibody 5E5 (antibody, V domains shown)
VH: QLQLVESGGGLVQPGGSLRLSCAASGFTFGTYSMRWVRQVPRKALEWVSSISTDGGGTAYRDSVKGRFTISRDNAKNTLYLQMNNLKPEDTAIYYCVIAGYSDWGQGTQVTVSS
VL: ATMLTQSPGSLSVVPGESASISCKTSQGLVHSDGKTYFYWFLQKPGQSPQQLIYQVSNRASGVPDRFTGSGSGTDFTLKISGVKAEDAGVYYCAQGTYYPHTFGSGTRLEIK
notes: detected with goat anti-human IgG (Fc); also called mAb 5E5
